Consider 7 molecules from doi:10.1101/2025.07.23.666269 (bioRxiv, 2025).

Data set [1] concerns the target recombinant ɸ6 protein P2 (cystovirus ɸ6) (UniProt P11124). Put plainly: MST.
Data set [2] concerns the target RNA-dependent RNA polymerase P2 of cystovirus ɸ6 (in virion-derived particles) (cystovirus ɸ6) (UniProt P11124). Put plainly: cryo-EM structure.
Data set [3] concerns the target minor protein P7 of cystovirus ɸ6 (in virion-derived particles) (cystovirus ɸ6). Put plainly: cryo-EM structure.
Data set [4] deals with recombinant ɸ6 protein P7, full length (cystovirus ɸ6). As to the kind of experiment: asymmetric flow field flow fractionation.
Data set [5] concerns the target recombinant ɸ6 protein P2 (cystovirus ɸ6) (UniProt P11124). As to the kind of experiment: asymmetric flow field flow fractionation.
The data set “cryo-EM structure” deals with the molecule itself. As to the kind of experiment: cryo-EM structure.
In data set [6] the target is T1, recombinant ɸ6 protein P1 (cystovirus ɸ6, UniProt P11126 1-769).
T1 sequence (looked up): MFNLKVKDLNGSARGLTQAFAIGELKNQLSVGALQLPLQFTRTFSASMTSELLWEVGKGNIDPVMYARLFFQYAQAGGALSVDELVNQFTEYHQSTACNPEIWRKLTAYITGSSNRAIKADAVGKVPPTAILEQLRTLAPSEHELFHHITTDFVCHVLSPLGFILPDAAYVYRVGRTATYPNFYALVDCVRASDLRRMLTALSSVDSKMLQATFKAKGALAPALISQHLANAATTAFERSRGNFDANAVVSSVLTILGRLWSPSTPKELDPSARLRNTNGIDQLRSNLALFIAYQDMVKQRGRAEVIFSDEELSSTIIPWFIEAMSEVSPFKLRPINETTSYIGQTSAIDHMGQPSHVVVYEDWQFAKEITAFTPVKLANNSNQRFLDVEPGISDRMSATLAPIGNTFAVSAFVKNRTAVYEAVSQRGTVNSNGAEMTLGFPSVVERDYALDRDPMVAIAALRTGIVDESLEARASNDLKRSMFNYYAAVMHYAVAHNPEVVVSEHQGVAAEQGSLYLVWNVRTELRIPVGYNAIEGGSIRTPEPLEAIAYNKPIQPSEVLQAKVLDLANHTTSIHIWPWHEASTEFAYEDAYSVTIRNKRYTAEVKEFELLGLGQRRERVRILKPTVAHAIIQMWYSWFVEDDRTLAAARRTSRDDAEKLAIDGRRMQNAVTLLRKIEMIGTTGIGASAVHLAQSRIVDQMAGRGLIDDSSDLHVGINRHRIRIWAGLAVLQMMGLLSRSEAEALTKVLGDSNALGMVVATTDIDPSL
Put plainly: co-sedimentation.

With “C-terminally truncated P7 comprising residues 2–115 (domain or fragment)”, the equilibrium dissociation constant (Kd) (in general, the equilibrium constant for the complex coming apart) in data set [1] is 15.1 µM. For the molecule “minor protein P7 of cystovirus ɸ6 (in virion-derived particles) (natural protein)”, the stoichiometry N (P7 dimers per P2) in data set [2] is 4. In data set [3], the stoichiometry N (as a rule, a count of units in the complex or per binding partner) was 4.

On to “recombinant ɸ6 protein P7, full length (natural protein)”, for which, in data set [1], the Kd was determined as 1.3 µM. Also, the stoichiometry N in data set [4] came to 2. The stoichiometry N (P7 dimer per P2 monomer) in data set [5] was determined as 1.

B1: major capsid protein P1 of cystovirus ɸ6 (in virion-derived particles) (natural protein)
chain: MFNLKVKDLNGSARGLTQAFAIGELKNQLSVGALQLPLQFTRTFSASMTSELLWEVGKGNIDPVMYARLFFQYAQAGGALSVDELVNQFTEYHQSTACNPEIWRKLTAYITGSSNRAIKADAVGKVPPTAILEQLRTLAPSEHELFHHITTDFVCHVLSPLGFILPDAAYVYRVGRTATYPNFYALVDCVRASDLRRMLTALSSVDSKMLQATFKAKGALAPALISQHLANAATTAFERSRGNFDANAVVSSVLTILGRLWSPSTPKELDPSARLRNTNGIDQLRSNLALFIAYQDMVKQRGRAEVIFSDEELSSTIIPWFIEAMSEVSPFKLRPINETTSYIGQTSAIDHMGQPSHVVVYEDWQFAKEITAFTPVKLANNSNQRFLDVEPGISDRMSATLAPIGNTFAVSAFVKNRTAVYEAVSQRGTVNSNGAEMTLGFPSVVERDYALDRDPMVAIAALRTGIVDESLEARASNDLKRSMFNYYAAVMHYAVAHNPEVVVSEHQGVAAEQGSLYLVWNVRTELRIPVGYNAIEGGSIRTPEPLEAIAYNKPIQPSEVLQAKVLDLANHTTSIHIWPWHEASTEFAYEDAYSVTIRNKRYTAEVKEFELLGLGQRRERVRILKPTVAHAIIQMWYSWFVEDDRTLAAARRTSRDDAEKLAIDGRRMQNAVTLLRKIEMIGTTGIGASAVHLAQSRIVDQMAGRGLIDDSSDLHVGINRHRIRIWAGLAVLQMMGLLSRSEAEALTKVLGDSNALGMVVATTDIDPSL
With B1, in the data set “cryo-EM structure”, the “stoichiometry N” value was 2.

B2: outer layer protein P8 of cystovirus ɸ6 (in virion-derived particles) (natural protein)
chain: MLLPVVARAAVPAIESAIAATPGLVSRIAAAIGSKVSPSAILAAVKSNPVVAGLTLAQIGSTGYDAYQQLLENHPEVAEMLKDLSFKADEIQPDFIGNLGQYREELELVEDAARFVGGMSNLIRLRQALELDIKYYGLKMQLNDMGYRS
For the molecule B2, in the data set “cryo-EM structure”, the “stoichiometry N” value was found to be 3.

B3: recombinant ɸ6 protein P2 (enzyme, cystovirus ɸ6)
chain: PRRAPAFPLSDIKAQMLFANNIKAQQASKRSFKEGAIETYEGLLSVDPRFLSFKNELSRYLTDHFPANVDEYGRVYGNGVRTNFFGMRHMNGFPMIPATWPLASNLKKRADADLADGPVSERDNLLFRAAVRLMFSDLEPVPLKIRKGSSTCIPYFSNDMGTKIEIAERALEKAEEAGNLMLQGKFDDAYQLHQMGGAYYVVYRAQSTDAITLDPKTGKFVSKDRMVADFEYAVTGGEQGSLFAASKDASRLKEQYGIDVPDGFFCERRRTAMGGPFALNAPIMAVAQPVRNKIYSKYAYTFHHTTRLNKEEKVKEWSLCVATDVSDHDTFWPGWLRDLICDELLNMGYAPWWVKLFETSLKLPVYVGAPAPEQGHTLLGDPSNPDLEVGLSSGQGATDLMGTLLMSITYLVMQLDHTAPHLNSRIKDMPSACRFLDSYWQGHEEIRQISKSDDAILGWTKGRALVGGHRLFEMLKEGKVNPSPYMKISYEHGGAFLGDILLYDSRREPGSAIFVGNINSMLNNQFSPEYGVQSGVRDRSKRKRPFPGLAWASMKDTYGACPIYSDVLEAIERCWWNAFGESYRAYREDMLKRDTLELSRYVASMARQAGLAELTPIDLEVLADPNKLQYKWTEADVSANIHEVLMHGVSVEKTERFLRSVMPR
modifications: RED fluorescent dye NT-647-NHS (Monolith Protein Labeling Kit RED-NHS), in the MST only
Regarding B3, in data set [6], the binding result is listed as “binds”.

B4: packaging NTPase P4 of cystovirus ɸ6 (in virion-derived particles) (enzyme, UniProt P11125 2-332, looked up)
chain: PIVVTQAHIDRVGIAADLLDASPVSLQVLGRPTAINTVVIKTYIAAVMELASKQGGSLAGVDIRPSVLLKDTAIFTKPKAKSADVESDVDVLDTGIYSVPGLARKPVTHRWPSEGIYSGVTALMGATGSGKSITLNEKLRPDVLIRWGEVAEAYDELDTAVHISTLDEMLIVCIGLGALGFNVAVDSVRPLLFRLKGAASAGGIVAVFYSLLTDISNLFTQYDCSVVMVVNPMVDAEKIEYVFGQVMASTVGAILCADGNVSRTMFRTNKGRIFNGAAPLAADTHMPSMDRPTSMKALDHTSIASVAPLERGSVDTDDRNSAPRRGANFSL
As for B4, the “stoichiometry N” value in “cryo-EM structure” worked out at 6.
